From US8026218 (UNIVERSITY OF ARIZONA, dated 2011)
Bridge positions count the residues as written; N and C are the ends. Square brackets hold non-standard residues; d marks the D form. Ends that are not written are not given here. * marks the point of attachment. NH(3,5-(CF3)2-benzyl) = FC(F)(F)c1cc(CN*)cc(C(F)(F)F)c1; OBzl(3,5-(CF3)2) = FC(F)(F)c1cc(CO*)cc(C(F)(F)F)c1

B1: H-Tyr-D-Ala-Gly-Phe-Met-Pro-Leu-Trp-NH-3,5-Bzl(CF3)2 (peptide)
peptide: H-Y[dA]GFMPLW-{NH(3,5-(CF3)2-benzyl)}
modifications: also: TFA salt
notes: TFA salt; also called TY027; TY27
B2: TyrDAlaGlyPheMetProLeuTrpNHBn(CF3)2 (peptide)
peptide: Y[dA]GFMPLW-{NH(3,5-(CF3)2-benzyl)}
notes: also called TY027
B3: Tyr[DCysGlyPheDCys]ProLeuTrpNHBn(CF3)2 (peptide)
peptide: Y[dC]GF[dC]PLW-{NH(3,5-(CF3)2-benzyl)}
modifications: disulfide 2-5
notes: cyclic; also called TY037; [D-Cys2, D-Cys5]TY027
B4: Tyr[DCysGlyPheCys]ProLeuTrpNHBn(CF3)2 (peptide)
peptide: Y[dC]GFCPLW-{NH(3,5-(CF3)2-benzyl)}
modifications: disulfide 2-5
notes: cyclic; also called TY039; [D-Cys2, Cys5]TY027
B5: TyrDAlaGlyPheDPheProLeuTrpOBn(CF3)2 (peptide)
peptide: Y[dA]GF[dF]PLW-{OBzl(3,5-(CF3)2)}
notes: also called TY007
B6: TyrDAlaGlyPheGlyProLeuTrpOBn(CF3)2 (peptide)
peptide: Y[dA]GFGPLW-{OBzl(3,5-(CF3)2)}
modifications: also: TFA salt
notes: also called TY006
B7: TyrDAlaGlyPheLeuProLeuTrpOBn(CF3)2 (peptide)
peptide: Y[dA]GFLPLW-{OBzl(3,5-(CF3)2)}
notes: also called TY004
B8: TyrDAlaGlyPhePheProLeuTrpOBn(CF3)2 (peptide)
peptide: Y[dA]GFFPLW-{OBzl(3,5-(CF3)2)}
notes: also called TY003
B9: TyrDAlaGlyPheNleProLeuTrpOBn(CF3)2 (peptide)
peptide: YAGFXPLW
modifications: D-Ala at 2; Nle at 5 (written X); C-terminal O-3,5-Bzl(CF3)2 ester
notes: also called TY018
B10: TyrDAlaGlyPheMet(O)ProLeuTrpOBn(CF3)2 (peptide)
peptide: YAGFMPLW
modifications: D-Ala at 2; Met(O) at 5; C-terminal O-3,5-Bzl(CF3)2 ester
notes: also called TY023
B11: Tyr-DAla-Gly-Phe-Ala-Trp-O-Bzl(CF3)2 (peptide)
peptide: Y[dA]GFAW-{O‑Bzl(CF3)2}
notes: also called NP31
B12: Tyr-DAla-Gly-Phe-D-Ala-Trp-O-Bzl(CF3)2 (peptide)
peptide: Y[dA]GF[dA]W-{O‑Bzl(CF3)2}
notes: also called NP40

biological target: T1, human δ opioid receptor (human, UniProt P41143 1-372); assay: cell-based or functional assay
T1 sequence (P41143 whole entry, stated change not applied): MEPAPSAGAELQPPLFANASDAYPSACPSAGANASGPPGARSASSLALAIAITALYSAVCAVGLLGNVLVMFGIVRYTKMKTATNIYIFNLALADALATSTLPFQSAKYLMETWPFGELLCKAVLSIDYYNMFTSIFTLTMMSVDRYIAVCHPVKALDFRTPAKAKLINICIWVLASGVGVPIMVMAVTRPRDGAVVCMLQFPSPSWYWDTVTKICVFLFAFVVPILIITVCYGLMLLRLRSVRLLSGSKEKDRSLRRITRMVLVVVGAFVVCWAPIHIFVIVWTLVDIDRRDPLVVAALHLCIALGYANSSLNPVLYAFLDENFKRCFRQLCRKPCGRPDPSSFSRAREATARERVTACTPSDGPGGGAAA

Binder	[35S]GTPγS binding EC50	[35S]GTPγS binding Emax	[35S]GTPγS binding LogEC50
B1	8.6 nM	58%	-8.1

biological target: T2, µ opioid receptor of the guinea pig isolated ileum (guinea pig, UniProt P97266 1-98); assay: cell-based or functional assay
T2 sequence (P97266 whole entry): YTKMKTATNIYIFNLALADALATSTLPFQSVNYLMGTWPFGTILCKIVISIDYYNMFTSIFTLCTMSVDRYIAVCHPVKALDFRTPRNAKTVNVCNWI

Binder	GPI (µ) IC50
B2	490 nM

biological target: T3, human δ opioid receptor (human, UniProt P41143 1-372); assay: cell-based or functional assay
T3 sequence (P41143 whole entry, stated change not applied): as the sequence (P41143 whole entry, stated change not applied) above

Binder	[35S]GTPγS binding EC50	[35S]GTPγS binding Emax	[35S]GTPγS binding LogEC50
B2	8.6 nM	58%	-8.1
B3	14 nM	22%	-7.9
B4	0.9 nM	37%	-9

biological target: T4, rat µ opioid receptor (rat, UniProt P33535 1-398); assay: cell-based or functional assay
T4 sequence (P33535 whole entry): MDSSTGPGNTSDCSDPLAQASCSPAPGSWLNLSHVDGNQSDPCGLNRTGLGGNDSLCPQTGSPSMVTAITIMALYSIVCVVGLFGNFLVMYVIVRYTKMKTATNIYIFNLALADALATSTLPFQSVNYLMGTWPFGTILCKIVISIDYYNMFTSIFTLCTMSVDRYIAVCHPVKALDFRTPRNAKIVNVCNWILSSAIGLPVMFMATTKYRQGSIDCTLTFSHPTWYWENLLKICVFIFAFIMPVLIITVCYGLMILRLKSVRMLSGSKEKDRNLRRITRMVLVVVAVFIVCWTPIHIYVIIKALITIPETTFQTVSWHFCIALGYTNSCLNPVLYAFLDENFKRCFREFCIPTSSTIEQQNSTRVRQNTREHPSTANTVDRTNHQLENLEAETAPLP

Binder	[35S]GTPγS binding EC50	[35S]GTPγS binding Emax	[35S]GTPγS binding LogEC50
B3	53 nM	12%	-7.3
B4	118 nM	17%	-6.9

biological target: T2, µ opioid receptor of the guinea pig …; assay: cell-based or functional assay; remark: another data set of the same source

Binder	GPI (µ) IC50
B2	490 nM
B3	280 nM

biological target: T5, guinea pig NK1 receptor (guinea pig, UniProt P30547 1-407); assay: cell-based or functional assay
T5 sequence (P30547 whole entry): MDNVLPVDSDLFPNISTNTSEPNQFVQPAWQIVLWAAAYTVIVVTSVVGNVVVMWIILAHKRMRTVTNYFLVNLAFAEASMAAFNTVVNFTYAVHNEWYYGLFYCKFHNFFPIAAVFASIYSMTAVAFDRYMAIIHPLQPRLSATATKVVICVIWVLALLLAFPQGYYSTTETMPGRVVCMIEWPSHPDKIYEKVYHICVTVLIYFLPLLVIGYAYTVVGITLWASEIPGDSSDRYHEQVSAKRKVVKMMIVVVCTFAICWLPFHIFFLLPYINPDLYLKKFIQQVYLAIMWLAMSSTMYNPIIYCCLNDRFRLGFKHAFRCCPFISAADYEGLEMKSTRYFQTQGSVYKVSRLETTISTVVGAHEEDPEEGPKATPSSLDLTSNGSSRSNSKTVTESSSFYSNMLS

Binder	GPI Substance P antagonist Ke
B3	4.7 nM

biological target: T3, human δ opioid receptor; assay: cell-based or functional assay; remark: another data set of the same source

Binder	GTP binding EC50	GTP binding Emax
B5	16.7 nM	22.9%
B6	50.2 nM	33.6%
B7	9.6 nM	42.5%
B8	20.8 nM	39%
B9	4 nM	131%
B10	–	52.8%

biological target: T4, rat µ opioid receptor; assay: cell-based or functional assay; remark: another data set of the same source

Binder	GTP binding EC50	GTP binding Emax
B5	345 nM	23.6%
B6	41.7 nM	35.9%
B7	–	44.5%
B8	58.7 nM	36.3%

biological target: T2, µ opioid receptor of the guinea pig …; assay: cell-based or functional assay; remark: another data set of the same source

Binder	GPI/LMMP, inhibition at 1 mM	GPI/LMMP IC50
B5	9%	–
B6	–	384 nM
B7	–	341 nM
B8	7%	–
B9	–	372 nM
B10	–	154 nM

biological target: T5, guinea pig NK1 receptor; assay: cell-based or functional assay; remark: another data set of the same source

Binder	GPI/LMMP SP antagonist Ke
B5	69.6 nM
B6	5.4 nM
B7	19.4 nM
B8	14.4 nM
B9	7.9 nM
B10	7.8 nM

biological target: T2, µ opioid receptor of the guinea pig …; assay: cell-based or functional assay; remark: another data set of the same source

Binder	GPI/LMMP IC50
B2	488 nM

biological target: T3, human δ opioid receptor; assay: cell-based or functional assay; remark: another data set of the same source

Binder	GTP EMax
B11	91
B12	89

biological target: T4, rat µ opioid receptor; assay: cell-based or functional assay; remark: another data set of the same source

Binder	GTP EMax
B11	50
B12	19

biological target: T4, rat µ opioid receptor; assay: competition vs [3H]DAMGO, rMOR cell membranes

Binder	Ki	LogIC50
B3	52 nM	-6.9
B4	200 nM	-6.4

biological target: T3, human δ opioid receptor; assay: competition vs [3H]DPDPE, hDOR cell membranes

Binder	LogIC50	Ki
B2	-8.8	–
B3	-7.8	7.8 nM
B4	-7.6	11 nM

biological target: T4, rat µ opioid receptor; assay: competition vs [3H]DAMGO, rMOR cell membranes; remark: another data set of the same source

Binder	Ki
B5	410 nM
B6	27 nM
B7	23.3 nM
B8	28.3 nM

biological target: T3, human δ opioid receptor; assay: competition vs [3H]DPDPE, hDOR cell membranes; remark: another data set of the same source

Binder	Ki
B5	110 nM
B6	36.1 nM
B7	5 nM
B8	14.6 nM
B9	1.8 nM
B10	5.1 nM

biological target: T4, rat µ opioid receptor; assay: competition vs [3H]DAMGO, rMOR cell membranes; remark: another data set of the same source

Binder	Ki
B11	3.6 nM
B12	2.8 nM

biological target: T3, human δ opioid receptor; assay: competition vs [3H]DPDPE, hDOR cell membranes; remark: another data set of the same source

Binder	Ki
B11	1.2 nM
B12	3.9 nM

biological target: T6, rat NK1 receptor (rat, UniProt P14600 1-407); assay: competition vs [3H]Substance P, rNK1 CHO cell membranes
T6 construct: whole, on cells; membrane preparations of the transfected cells were used; also called rNK1; rNK-1
T6 sequence (P14600 whole entry): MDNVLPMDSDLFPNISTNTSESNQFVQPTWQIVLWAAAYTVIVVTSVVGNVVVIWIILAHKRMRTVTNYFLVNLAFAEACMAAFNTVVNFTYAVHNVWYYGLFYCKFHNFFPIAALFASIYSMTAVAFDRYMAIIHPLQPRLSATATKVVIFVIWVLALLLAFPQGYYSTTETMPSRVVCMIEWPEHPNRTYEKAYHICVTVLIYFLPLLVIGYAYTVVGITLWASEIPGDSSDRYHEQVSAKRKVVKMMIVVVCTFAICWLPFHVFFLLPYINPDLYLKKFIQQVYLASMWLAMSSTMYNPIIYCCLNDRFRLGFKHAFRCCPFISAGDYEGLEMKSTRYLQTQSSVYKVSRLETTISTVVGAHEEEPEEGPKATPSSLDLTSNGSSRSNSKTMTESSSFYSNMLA

Binder	Ki	LogIC50
B2	7.3 nM	-7.6
B3	–	-6.9
B4	–	-5.8

biological target: T6, rat NK1 receptor; assay: as above; remark: another data set of the same source

Binder	IC50
B5	66.7 nM
B6	15.6 nM
B7	20.9 nM
B8	19.3 nM
B10	54.5 nM

biological target: T6, rat NK1 receptor; assay: as above; remark: another data set of the same source

Binder	Ki
B2	7.27 nM

biological target: T7, human NK1 receptor (human, UniProt P25103 1-407); assay: competition vs [3H]Substance P, hNK1 CHO cell membranes
T7 construct: whole, on cells; membrane preparations of the transfected cells were used; also called hNK1; human neurokinin-1 receptor
T7 sequence (P25103 whole entry): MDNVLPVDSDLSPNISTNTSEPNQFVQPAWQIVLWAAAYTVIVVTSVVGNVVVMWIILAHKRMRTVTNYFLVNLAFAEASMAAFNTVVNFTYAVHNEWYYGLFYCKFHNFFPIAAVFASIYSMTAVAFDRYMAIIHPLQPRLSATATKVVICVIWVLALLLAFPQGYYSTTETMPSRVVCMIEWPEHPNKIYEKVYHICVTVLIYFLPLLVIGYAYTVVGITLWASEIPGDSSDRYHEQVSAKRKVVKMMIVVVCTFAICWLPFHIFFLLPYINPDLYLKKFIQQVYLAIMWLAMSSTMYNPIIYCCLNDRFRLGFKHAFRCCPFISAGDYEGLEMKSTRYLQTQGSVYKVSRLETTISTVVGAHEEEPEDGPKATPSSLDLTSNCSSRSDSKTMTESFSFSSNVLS

Binder	Ki
B12	0.011 nM

biological target: T6, rat NK1 receptor; assay: competition vs [3H]Substance P, rNK1 CHO cell membranes; remark: another data set of the same source

Binder	Ki
B11	8.6 nM
B12	2.4 nM

biological target: T1, human δ opioid receptor; assay: competition vs [3H]DPDPE, membranes of hDOR-transfected HN9.10 cells

Binder	LogIC50
B1	-8.8

biological target: T8, rat NK1 receptor (rat, UniProt P14600 1-407); assay: competition vs [3H]substance P, membranes of rNK1-transfected CHO cells
T8 construct: whole, on cells; Assayed as membrane preparations of transfected CHO cells; also called rNK1; rNK-1
T8 sequence (P14600 whole entry): as the sequence (P14600 whole entry) above

Binder	Ki	LogIC50
B1	7.3 nM	-7.6
